Target: T1, endogenous EphB2 receptor of HRMEC (human, UniProt P29323 19-1055)
T1 construct: whole, on cells; also called Nuk
T1 sequence (looked up): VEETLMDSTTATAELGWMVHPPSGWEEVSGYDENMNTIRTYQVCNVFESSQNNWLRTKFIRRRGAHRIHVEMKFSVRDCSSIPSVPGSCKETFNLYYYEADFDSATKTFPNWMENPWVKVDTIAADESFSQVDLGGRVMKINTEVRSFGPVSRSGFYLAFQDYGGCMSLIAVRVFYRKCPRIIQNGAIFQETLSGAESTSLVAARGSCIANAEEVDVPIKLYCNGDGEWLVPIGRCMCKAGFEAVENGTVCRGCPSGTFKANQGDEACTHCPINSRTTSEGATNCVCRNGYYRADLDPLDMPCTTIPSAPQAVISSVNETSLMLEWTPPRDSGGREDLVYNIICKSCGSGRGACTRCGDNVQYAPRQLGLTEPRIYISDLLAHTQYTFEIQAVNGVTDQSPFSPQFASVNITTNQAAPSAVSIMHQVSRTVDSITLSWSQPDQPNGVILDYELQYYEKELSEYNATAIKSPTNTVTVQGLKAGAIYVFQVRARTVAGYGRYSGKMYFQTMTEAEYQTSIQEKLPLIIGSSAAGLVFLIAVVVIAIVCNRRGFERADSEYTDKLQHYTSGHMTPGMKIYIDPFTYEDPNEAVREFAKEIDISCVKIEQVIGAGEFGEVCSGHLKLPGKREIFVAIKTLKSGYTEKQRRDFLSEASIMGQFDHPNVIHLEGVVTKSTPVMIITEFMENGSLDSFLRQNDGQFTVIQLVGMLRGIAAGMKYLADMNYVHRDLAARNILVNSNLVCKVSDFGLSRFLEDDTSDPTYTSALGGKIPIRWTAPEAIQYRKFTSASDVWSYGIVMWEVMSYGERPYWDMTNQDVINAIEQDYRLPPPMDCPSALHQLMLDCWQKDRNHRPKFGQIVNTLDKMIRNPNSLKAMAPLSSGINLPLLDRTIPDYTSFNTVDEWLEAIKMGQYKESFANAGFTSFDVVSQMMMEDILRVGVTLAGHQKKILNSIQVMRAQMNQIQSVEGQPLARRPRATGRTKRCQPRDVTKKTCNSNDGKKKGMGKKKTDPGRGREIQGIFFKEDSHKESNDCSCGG
Experiment: co-immunoprecipitation from HRMEC stimulated with dimeric or multimeric ephrin-B1/Fc, immunoblot
Description: Ligand stimulation and immunoprecipitation of endogenous EphB receptors. Primary HRMEC were used at passages 3-6, as described (12). […] Ninety min prior to ligand stimulation, cells (2×10⁵cells/60 mm dish) were plated on Matrigel-(Collaborative Biomedical Products, Becton Dickinson, Bedford, Mass., as recommended) or fibronectin-coated (29) dishes. […] Cells were incubated with agonists at 37° C. for 10 min, or as described in the figure legends. Immunoprecipitations were conducted on either cell lysates (P19) or on Triticum vulgaris lectin affinity purified fractions of HRMEC (15) (needed to reduce the background from Matrigel). Precipitated proteins were analyzed by immunoblot (15).

binding result: no binding
B1: endogenous EphB1 receptor of human endothelial cells (HRMEC; HUVEC) (receptor, UniProt P54762 18-984, looked up)
chain: MEETLMDTRTATAELGWTANPASGWEEVSGYDENLNTIRTYQVCNVFEPNQNNWLLTTFINRRGAHRIYTEMRFTVRDCSSLPNVPGSCKETFNLYYYETDSVIATKKSAFWSEAPYLKVDTIAADESFSQVDFGGRLMKVNTEVRSFGPLTRNGFYLAFQDYGACMSLLSVRVFFKKCPSIVQNFAVFPETMTGAESTSLVIARGTCIPNAEEVDVPIKLYCNGDGEWMVPIGRCTCKPGYEPENSVACKACPAGTFKASQEAEGCSHCPSNSRSPAEASPICTCRTGYYRADFDPPEVACTSVPSGPRNVISIVNETSIILEWHPPRETGGRDDVTYNIICKKCRADRRSCSRCDDNVEFVPRQLGLTECRVSISSLWAHTPYTFDIQAINGVSSKSPFPPQHVSVNITTNQAAPSTVPIMHQVSATMRSITLSWPQPEQPNGIILDYEIRYYEKEHNEFNSSMARSQTNTARIDGLRPGMVYVVQVRARTVAGYGKFSGKMCFQTLTDDDYKSELREQLPLIAGSAAAGVVFVVSLVAISIVCSRKRAYSKEAVYSDKLQHYSTGRGSPGMKIYIDPFTYEDPNEAVREFAKEIDVSFVKIEEVIGAGEFGEVYKGRLKLPGKREIYVAIKTLKAGYSEKQRRDFLSEASIMGQFDHPNIIRLEGVVTKSRPVMIITEFMENGALDSFLRQNDGQFTVIQLVGMLRGIAAGMKYLAEMNYVHRDLAARNILVNSNLVCKVSDFGLSRYLQDDTSDPTYTSSLGGKIPVRWTAPEAIAYRKFTSASDVWSYGIVMWEVMSFGERPYWDMSNQDVINAIEQDYRLPPPMDCPAALHQLMLDCWQKDRNSRPRFAEIVNTLDKMIRNPASLKTVATITAVPSQPLLDRSIPDFTAFTTVDDWLSAIKMVQYRDSFLTAGFTSLQLVTQMTSEDLLRIGITLAGHQKKILNSIHSMRVQISQSPTAMA
notes: whole, on cells; In the co-precipitation entries the receptor was tyrosine phosphorylated after stimulation of the cells; also called ELK
